Data on one substance can be found in publication doi:10.1101/187336.

The target in the assay is fHbp^V1.1:PorA^267/P1.16 (Neisseria meningitidis (MC58 genomic DNA) | Neisseria meningitidis) (UniProt Q9JXV4). Kind of assay: SPR. On the technique in general: Surface plasmon resonance follows binding to a sensor surface in real time, without labels.

“human complement FH domains 6 and 7 (from UniProt P08603 321-443) (domain or fragment)” yielded a fold reduction of CFH binding of 8 fold.
